System: MG-63 cells
Test: WST-1 cell viability of MG-63 cells
Type: cell-based, human
Conditions: GDNF 50 ng/ml, 24 h
Protocol: FIG. 4. GFRα1 regulates autophagy by Src/AMPK signaling in osteosarcoma cells. (a-b) Immunoblot analysis of osteosarcoma cell lysates with antibodies specific for GFRα1, p-Src, Src, p-AMPK, AMPK, p-mTOR, mTOR, p-p70 S6Kinase, Beclin 1, HMGB1, LC3, and β-actin. (a) MG-63 and cells were treated with cisplatin (20 μM) for 24 hr. (b) Control and GFRα1-deficient MG-63 cells were treated with cisplatin (20 μM) for 24 hr. (c-e) Immunoblot analysis of osteosarcoma cell lysates with antibodies specific for GFRα1, p-Src, Src, p-AMPK, AMPK, LC3, and β-actin. (c) Control and Src-deficient MG-63 cells were treated with cisplatin (20 μM) for 24 hr. […] Cell viability was measured using the WST-1 assay. […] Cell viability was measured using the WST-1 assay. […]
FIG. 7. […] (a) Quantitative real-time PCR of GDNF mRNA expression after cisplatin treatment. […] (b-d) Cell viability was measured using the WST-1 assay. […] (f) Quantitative analysis of the number of yellow puncta and the number of RFP-LC3 puncta in the combined images of Control and GFRα1-overexpressing MG-63 cells treated with GDNF. […]
Cell viability assays. […] Cell viability was determined by measuring the absorbance after adding WST-1. The spectrophotometric absorbance of the samples was measured using an Ultra Multifunctional Microplate Reader (Tecan, Durham, N.C.) at 450 nm. […]

B1: GDNF: glial cell line-derived neurotrophic factor, the major ligand of GFRα1 (protein, UniProt P39905 78-211, looked up)
Glial cell line-derived …: SPDKQMAVLPRRERNRQAAAANPENSRGKGRRGQRGKNRGCVLTAIHLNVTDLGLGYETKEELIFRYCSGSCDAAETTYDKILKNLSRNRRLVSDKVGQACCRPIAFDDDLSFLDDNLVYHILRKHSAKRCGCI
**Q.** Which “cell proliferation of MG-63 cells” value does the source give for B1 here?
**A.** The value was “no effect”.
